Assays:
Assay in all cases: ProtoArray, GST-treated control array
Conditions in all cases: remark: other sources report otherwise
[1] = target: C12orf23-chromosome 12 open reading frame 23 (C12orf23) (human), Q8WUH6
[2] = target: YPEL5-yippee-like 5 (Drosophila) (YPEL5) (human), P62699
[3] = target: UBE2D2-Ubiquitin-conjugating enzyme E2 D2 (human), P62837
UBE2D2-Ubiquitin-conjugating enzyme E2 D2 (human), P62837, sequence (P62837 whole entry): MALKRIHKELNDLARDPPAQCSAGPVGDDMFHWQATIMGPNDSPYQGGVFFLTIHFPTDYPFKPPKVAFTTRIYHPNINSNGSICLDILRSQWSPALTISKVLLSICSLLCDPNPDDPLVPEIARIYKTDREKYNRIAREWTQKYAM

YPEL5-yippee-like 5 (Drosophila) (YPEL5) (human), P62699, sequence (P62699 whole entry): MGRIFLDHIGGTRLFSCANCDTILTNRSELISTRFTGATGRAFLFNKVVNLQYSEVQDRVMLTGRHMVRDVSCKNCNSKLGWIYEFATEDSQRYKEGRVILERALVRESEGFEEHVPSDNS

- GST Average SNR [1]: 0.48
- GST Average SNR [2]: -0.787
- GST Average SNR [3]: -0.383
B1: 3× Flag-3×MBT (designed binder, not shown: a dimerising Fc or GST)
chain: EEWSSSQPATGEKKECWSWESYLEEQKAITAPVSLFQDSQAVTHNKNGFKLGMKLEGIDPQHPSMYFILTVAEVCGYRLRLHFDGYSECHDFWVNANSPDIHPAGWFEKTGHKLQPPKGYKEEEFSWSQYLRSTRAQAAPKHLFVSQSHSPPPLGFQVGMKLEAVDRMNPSLVCVASVTDVVDSRFLVHFDNWDDTYDYWCDPSSPYIHPVGWCQKQGKPLTPPQDYPDPDNFCWEKYLEETGASAVPTWAFKVRPPHSFLVNMKLEAVDRRNPALIRVASVEDVEDHRIKIHFDGWSHGYDFWIDADHPDIHPAGWCSKTGHPLQPPLGPREPSSASPGG
